The text below walks through data of article PMC6820745, “Structural and thermodynamic basis for the recognition of the substrate-binding cleft on hen egg lysozyme by a single-domain antibody” (Scientific Reports, 2019).

Changes are numbered by the printed parent chain.

Experiment [1] concerns the target hen egg lysozyme (hen) (UniProt P00698). The experiment is described as follows: ITC; iTC200; 25 °C; PBS; VHH (10 uM) in the cell titrated with HEL (100 uM); 1:1 binding model.
For experiment [2] the target is unchanged. Kind of experiment: SPR; as a1, but KD from the responses in equilibrium (Scatchard plot, 1:1 model); HEL immobilised; 25 °C; PBS with 0.005% Tween 20. A general note: SPR reads the build-up and loss of mass on a sensor chip optically.
In experiment [3] the target is T1, hen egg lysozyme (hen, UniProt P00698 19-147).
T1 construct: hen egg lysozyme (HEL), bought, used without further purification; also called HEL; source: bought: Wako Pure Chemical (Cat. No. 126-02671)
T1 sequence (P00698 19-147): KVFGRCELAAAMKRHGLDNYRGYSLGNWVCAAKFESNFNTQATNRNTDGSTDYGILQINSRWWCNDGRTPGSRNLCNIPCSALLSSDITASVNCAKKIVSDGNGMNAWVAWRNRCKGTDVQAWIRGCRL
The experiment is described as follows: ITC; iTC200, 25 °C, PBS; VHH (10 µM) in the cell titrated with HEL (100 µM); 1:1 binding model; two independent measurements. Conditions: both partners purified. In general terms: In ITC the heat of successive injections is recorded.

In experiment [4] the target is hen egg lysozyme (hen) (UniProt P00698). Kind of experiment: SPR; Biacore T200; HEL immobilised on CM5 chip (200 RU); VHH flowed over; 25 °C; PBS with 0.005% Tween 20; global fit to a 1:1 binding model.
hen egg lysozyme (hen), sequence (P00698 19-147): as above
The target in experiment [5] is T1, hen egg lysozyme. The experiment is described as follows: SPR; HEL immobilised on CM5 chip (200 RU), VHH flowed over, multi-cycle, 10 °C, PBS with 0.005% Tween 20, global fit to a 1:1 binding model. Conditions: both partners purified.
The target of experiment [6] is T1, hen egg lysozyme. The experiment is described as follows: SPR; HEL immobilised on CM5 chip (200 RU), VHH flowed over, multi-cycle, 14 °C, PBS with 0.005% Tween 20, global fit to a 1:1 binding model. As to conditions: both partners purified.
In experiment [7] the target is T1, hen egg lysozyme. The experiment is described as follows: SPR; HEL immobilised on CM5 chip (200 RU), VHH flowed over, multi-cycle, 18 °C, PBS with 0.005% Tween 20, global fit to a 1:1 binding model. As to conditions: both partners purified.
Experiment [8] deals with T1, hen egg lysozyme. The experiment is described as follows: SPR; HEL immobilised on CM5 chip (200 RU), VHH flowed over, multi-cycle, 22 °C, PBS with 0.005% Tween 20, global fit to a 1:1 binding model. Conditions: both partners purified.
In experiment [9] the target is T1, hen egg lysozyme. The experiment is described as follows: SPR; HEL immobilised on CM5 chip (200 RU), VHH flowed over, multi-cycle, 26 °C, PBS with 0.005% Tween 20, global fit to a 1:1 binding model. Conditions: both partners purified.
Experiment [10] concerns the target T1, hen egg lysozyme. Kind of experiment: SPR; HEL immobilised on CM5 chip (200 RU), VHH flowed over, 10 °C, PBS with 0.005% Tween 20, steady-state responses (Scatchard plot), 1:1 binding model. As to conditions: both partners purified.
Experiment [11] addresses T1, hen egg lysozyme. Kind of experiment: SPR; HEL immobilised on CM5 chip (200 RU), VHH flowed over, 14 °C, PBS with 0.005% Tween 20, steady-state responses (Scatchard plot), 1:1 binding model. As to conditions: both partners purified.
In experiment [12] the target is T1, hen egg lysozyme. The experiment is described as follows: SPR; HEL immobilised on CM5 chip (200 RU), VHH flowed over, 18 °C, PBS with 0.005% Tween 20, steady-state responses (Scatchard plot), 1:1 binding model. Conditions: both partners purified.
For experiment [13], the target named is T1, hen egg lysozyme. The experiment is described as follows: SPR; HEL immobilised on CM5 chip (200 RU), VHH flowed over, 22 °C, PBS with 0.005% Tween 20, steady-state responses (Scatchard plot), 1:1 binding model. Conditions: both partners purified.
Experiment [14] deals with T1, hen egg lysozyme. The experiment is described as follows: SPR; HEL immobilised on CM5 chip (200 RU), VHH flowed over, 26 °C, PBS with 0.005% Tween 20, steady-state responses (Scatchard plot), 1:1 binding model. Conditions: both partners purified.
Experiment [15] addresses T1, hen egg lysozyme. Kind of experiment: SPR; HEL immobilised on CM5 chip (200 RU), VHH flowed over, 30 °C, PBS with 0.005% Tween 20, steady-state responses (Scatchard plot), 1:1 binding model. As to conditions: both partners purified.
The target in experiment [16] is hen egg lysozyme (hen) (UniProt P00698). Kind of experiment: SPR; HEL immobilised; measured at several temperatures; van't Hoff analysis (non-linear regression); PBS with 0.005% Tween 20; KD given for 25 °C from the van't Hoff free energy.
The target of experiment [17] is T2, hen egg lysozyme (Gallus gallus (hen), UniProt P00698).
T2 construct: hen egg lysozyme (lysozyme C), bought from Wako Pure Chemical; also called HEL; source: bought: Wako Pure Chemical (Cat. No. 126-02671), used without further purification
T2 sequence (P00698 19-147): as above
The experiment is described as follows: ITC; iTC200; 25 °C; PBS; VHH (10 uM) in the cell titrated with HEL (100 uM); 1:1 binding model. Conditions: both partners purified.

In experiment [18] the target is T2, hen egg lysozyme. The experiment is described as follows: SPR; Biacore T200; HEL immobilised on CM5 chip (200 RU); VHH flowed over; 25 °C; PBS with 0.005% Tween 20; global fit to a 1:1 binding model. Conditions: both partners purified. Put shortly:
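Binding of the His6-tagged single-domain antibody, expressed in E. coli BL21(DE3) and purified by Ni-NTA and size-exclusion chromatography, was measured by surface plasmon resonance on a Biacore T200 against hen egg lysozyme immobilised on a CM5 chip (200 RU). Runs were at 25 °C in PBS with 0.005% Tween 20, with 300 s contact, 600 s dissociation and regeneration in 1.0 M Arg-HCl pH 4.4. Antibody concentrations were adjusted per mutant. Kd, kon and koff came from global fitting to a 1:1 binding model in BiaEvaluation.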

Experiment [19] deals with T2, hen egg lysozyme. The experiment is described as follows: SPR; HEL immobilised; measured at several temperatures; van't Hoff analysis (non-linear regression); PBS with 0.005% Tween 20; KD given for 25 °C from the van't Hoff free energy. As to conditions: both partners purified.
The target in experiment [20] is T2, hen egg lysozyme. Kind of experiment: SPR; as a1, but KD from the responses in equilibrium (Scatchard plot, 1:1 model); HEL immobilised; 25 °C; PBS with 0.005% Tween 20. As to conditions: both partners purified.
The target in experiment [21] is T2, hen egg lysozyme. Kind of experiment: SPR; HEL immobilised; measured at several temperatures; van't Hoff analysis (non-linear regression); PBS with 0.005% Tween 20; KD given for 25 °C from the van't Hoff free energy. Conditions: both partners purified. This is another data set of the same source.

B1: D3-L11 Y102A (VHH)
VHH: DVQLVESGGGSVQAGGSLRLSCAASGSTDSIEYMTWFRQAPGKAREGVAALYTHTGNTYYTDSVKGRFTISQDKAKNMAYLRMDSVKSEDTAIYTCGATRKAVPVRFALDQSSYDYWGQGTQVTVSS
notes: the substitution is still to be applied; source: E. coli BL21(DE3), purified (Ni-NTA, SEC)
One may read the Kd as a measure of binding affinity in units of concentration. A low value points to a tighter complex. As usually defined, the stoichiometry N is a count of units in the complex or per binding partner. As usually defined, the koff is the first-order rate constant of dissociation. Higher therefore signals a short-lived complex. In general, kon refers to a measure of how fast the partners come together. A higher kon goes with faster complex formation. In turn, B1 displayed a ddH against WT antibody (ITC) in the experiment with hen egg lysozyme (hen) [1] of 4.8 kcal/mol. Also, the Kd with hen egg lysozyme (hen) [2] amounted to 635 nM; with hen egg lysozyme [3], 1800 nM; with hen egg lysozyme (hen) [4] it was 295 nM; with hen egg lysozyme [5], 100 nM; in the experiment with hen egg lysozyme [6], 146 nM; with hen egg lysozyme [7] it was 191 nM. Besides, the Kd with hen egg lysozyme [8] stood at 233 nM; in the experiment with hen egg lysozyme [9], 418 nM; with hen egg lysozyme [10], 303 ± 32 nM; with hen egg lysozyme [11] it was 348 ± 42 nM; with hen egg lysozyme [12], 429 ± 48 nM; in the experiment with hen egg lysozyme [13] it was 529 ± 55 nM. Moreover, the Kd amounted to 658 ± 64 nM with hen egg lysozyme [14], 867 ± 70 nM in the experiment with hen egg lysozyme [15] and 413 nM in the experiment with hen egg lysozyme (hen) [16]. In addition, the “stoichiometry N” value with hen egg lysozyme [3] was 1.23. The koff with hen egg lysozyme (hen) [4] was 0.686 s⁻¹; with hen egg lysozyme [5], 0.116 s⁻¹; with hen egg lysozyme [6] it was 0.201 s⁻¹; in the experiment with hen egg lysozyme [7], 0.309 s⁻¹; in the experiment with hen egg lysozyme [8] it was 0.479 s⁻¹; in the experiment with hen egg lysozyme [9], 0.83 s⁻¹. Further, the kon was found to be 2.32e+06 M⁻¹ s⁻¹ with hen egg lysozyme (hen) [4]; 1.15e+06 M⁻¹ s⁻¹ with hen egg lysozyme [5]; 1.38e+06 M⁻¹ s⁻¹ with hen egg lysozyme [6]; 1.62e+06 M⁻¹ s⁻¹ with hen egg lysozyme [7]; 2.06e+06 M⁻¹ s⁻¹ with hen egg lysozyme [8]; 1.99e+06 M⁻¹ s⁻¹ with hen egg lysozyme [9]. Besides, the dH (van't Hoff) with hen egg lysozyme (hen) [16] was -12 kcal/mol.

B2: D3-L11 (VHH)
VHH: B1 VHH with A102Y
notes: VHH D3-L11 specific for HEL; Synthetic gene in pRA2 with a pelB signal peptide at the N-terminus and a His6-tag at the C-terminus; also called WT; WT antibody; source: E. coli BL21(DE3), purified (Ni-NTA, SEC)
As to B2, the dH in the experiment with hen egg lysozyme [17] is -21.4 ± 0.6 kcal/mol. In the experiment with hen egg lysozyme [18], this molecule had a Kd of 0.129 nM, a koff of 0.000785 s⁻¹ and a kon of 6.1e+06 M⁻¹ s⁻¹. Besides, the “dH (van't Hoff)” value with hen egg lysozyme [19] was -17 kcal/mol.

B3: D3-L11 Y52A (VHH)
VHH: B1 VHH with Y52A, A102Y
notes: as the VHH chain of m2 with the stated change; source: E. coli BL21(DE3), purified (Ni-NTA, SEC)
In the case of B3, in the experiment with hen egg lysozyme [17], the “ddH against WT antibody (ITC)” value is 9.1 ± 1.4 kcal/mol. Further, the dissociation constant (Kd) with hen egg lysozyme [20] amounted to 144 ± 22 nM. In addition, in the experiment with hen egg lysozyme [18], the Kd turned out to be 46.1 nM, the koff amounted to 0.128 s⁻¹ and the kon worked out at 2.77e+06 M⁻¹ s⁻¹. For the same molecule, the Kd with hen egg lysozyme [21] came to 46 ± 19 nM. Besides, the “dH (van't Hoff)” value with hen egg lysozyme [19] is -11 kcal/mol.
